By stoichiometry N is commonly meant the number of molecules, sites or subunits per partner or assembly.

Experimental findings from paper PMC3749045 are described below.

For this test, the target named is NarXS1 (NarX periplasmic sensor domain, residues 38 - 151) (Escherichia coli K-12) (UniProt P0AFA2). Kind of test: crystal structure.

Substance “NarXS1 (NarX periplasmic sensor domain, residues 38 - 151) (from UniProt P0AFA2 38-151) (domain or fragment)” gave a stoichiometry N of 2.
